Measurements reported in patent US10155811B2, “APLNR modulators and uses thereof” (Regeneron Pharmaceuticals, Inc., priority 2013, dated 2018).

What was measured:
HEK293 parental cells = experiment: FACS binding to HEK293 parental cells; conditions: Table 3; 10 μg/mL antibody; anti-mouse IgG Alexa 647
Method: Binding ratios for human APLNR binding to purified anti-APLNR monoclonal antibodies were determined by a fluorescence-activated cell sorting (FACS) binding assay. […] The resulting stable cell lines, HEK293/CRE-luc/hAPLNR and HEK293/CRE-luc/MfAPLNR, were maintained in DMEM containing 10% FBS, NEAA, and penicillin/streptomycin with either 100 μg/mL Hygromycin B for hAPLNR cells or 500 μg/mL G418 for MfAPLNR cells.
For the FACS analysis, HEK293 parental, HEK293/CRE-luc/hAPLNR, and, HEK293/CRE-luc/mfAPLNR cells were dissociated using Enzyme Free Dissociation reagent (#S-004, Millipore, Billerica, Mass., USA) and 10^6 cells/well were plated onto 96-well v-bottom plates in PBS containing 1% FBS. […] Cells were then filtered and analyzed on Accuri Flow Cytometer (BD Biosciences, San Jose, Calif., USA). Unstained and secondary antibody alone controls were also tested for binding to all cell lines. […] Geometric mean (Geom. mean) of fluorescence for each antibody was then normalized to geometric mean of unstained cells to obtain relative binding of antibody (binding ratios) per each cell type: HEK293 (parental), HEK293/CRE-luc/hAPLNR and HEK293/CRE-luc/MfAPLNR.

hAPLNR [1] = target: T1, hAPLNR (Homo sapiens, UniProt P35414); experiment: CRE-luciferase cyclic AMP assay, activation of hAPLNR (inhibition of Forskolin-induced cAMP) in HEK293/CRE-luc/hAPLNR cells; assay type: cell-based; parameters: expressed in transfected cells; conditions: without Apelin; for % Activation at 100 nM mAb (at 10 uM Forskolin) / % Activation at 100 nM mAb (at 5 uM Forskolin): Table 6A, % of maximum Apelin activation
T1 sequence (P35414 1-380): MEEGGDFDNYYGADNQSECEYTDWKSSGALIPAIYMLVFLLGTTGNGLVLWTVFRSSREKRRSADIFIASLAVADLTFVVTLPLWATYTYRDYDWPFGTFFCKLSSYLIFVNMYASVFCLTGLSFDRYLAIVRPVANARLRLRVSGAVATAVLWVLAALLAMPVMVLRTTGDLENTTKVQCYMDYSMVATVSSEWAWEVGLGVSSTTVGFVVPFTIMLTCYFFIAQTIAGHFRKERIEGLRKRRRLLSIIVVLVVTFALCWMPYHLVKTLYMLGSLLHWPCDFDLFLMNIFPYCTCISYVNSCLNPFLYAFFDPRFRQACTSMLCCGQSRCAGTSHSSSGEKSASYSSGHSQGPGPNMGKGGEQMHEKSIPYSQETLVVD
Method: The ability of anti-APLNR antibodies to activate hAPLNR-mediated cell signaling was measured using a cyclic AMP assay. The hAPLNR is a 7-transmembrane G-protein coupled receptor (GPCR).
(§1) The resulting cell line, HEK293/CRE-luc/hAPLNR, was maintained in DMEM containing 10% FBS, NEAA, pencillin/streptomycin, and 100 μg/mL Hygromycin B.
(§2) Testing of antibodies included a no antibody control.
(§3) The results of all assays were analyzed using nonlinear regression (4-parameter logistics) within Prism 5 software (GraphPad).

hAPLNR [2] = target: T1, hAPLNR; experiment: CRE-luciferase cyclic AMP assay, inhibition of hAPLNR in the presence of 100 ρM Apelin in HEK293/CRE-luc/hAPLNR cells; assay type: cell-based; parameters: expressed in transfected cells; conditions: for inhibition (maximum blockade) of 100 ρM Apelin activation: unmodified anti-APLNR antibodies
Method: as §1, §2, §3

| Molecule | Binding Ratio of Geom. Mean to Unstained Cells, HEK293 Parental (HEK293 parental cells) | % Activation at 100 nM mAb (at 10 uM Forskolin) (hAPLNR [1]) | activation of hAPLNR, % of maximum Apelin activation at 100 nM (hAPLNR [1]; 100 nM highest antibody dose tested) | % Activation at 100 nM mAb (at 5 uM Forskolin) (hAPLNR [1]) | % Inhibition at 100 nM antibody, in the presence of 100 ρM Apelin (at 5 μM Forskolin) (hAPLNR [2]; Table 6D) | inhibition (maximum blockade) of 100 ρM Apelin activation (hAPLNR [2]) | % Inhibition at 100 nM antibody, in the presence of 100 ρM Apelin (at 5 μM Forskolin) (hAPLNR [2]; Table 6C) |
| --- | --- | --- | --- | --- | --- | --- | --- |
| H2aM9227N: anti-APLNR antibody, HCVR/LCVR SEQ ID NO: 50/58, mouse IgG2a Fc (antibody, V domains shown, mouse IgG2a Fc) VH: EVQLVESGGGLVQPGGSLRLSCAASGFTFSSFWMSWVRQVPGKGLEWVANIKQDGSEKYYVDSVKGRFTISRDNAKNSLYLQMNSLRAEDTAVYYCARDRFGYSFYDKGVRYYYGMDVWGQGTTVTVSS VL: DIQMTQSPSSLSVSVGDRVTITCRASQGIRNDLGWYQQKPGKAPKRLIYATSSLQSGVPSRFSGSGSGTEFTLTISGLQPEDFATYYCLQHNSYPRTFGQGTKVEIK | 4 | 12% | 12% |  |  |  |  |
| H2aM9230N: anti-APLNR antibody, HCVR/LCVR SEQ ID NO: 82/90, mouse IgG2a Fc (antibody, V domains shown, mouse IgG2a Fc) VH: EVQLVESGGGLVQPGGSLRLSCAASGFTFSSFWMSWVRQVPGKGLQWVANIKQDGSEKYYVDSVKGRFTISRDNAKNSLYLQMNSLRAEDTAVYYCARDRFGYSVYDKGVRYYYGMDVWGQGTTVTVSS VL: DIQMTQSPSSLSVSVGDRVTITCRASQGIRNDLGWYQQKPGKAPKRLIYAASSLQSGVPSRFSGSGSGTEFTLTISGLQSEDFATYYCLQHKSYPRTFGQGTKVEIK | 3 | No Activation |  |  |  |  |  |
| H4H9113P: anti-APLNR antibody, HCVR/LCVR SEQ ID NO: 210/218, human IgG4 Fc (antibody, V domains shown, human IgG4 Fc) VH: QVQLVQSGAEVKKPGASVEVSCKASGYTFTDYYIHWIRQAPGQGLEWMGWINPDSGRTNYAQKFQVRVTMTRDTSITTAYMELNRLKSDDTAVYYCARGPLRGYSGYDFFDYWGQGTLVTVSS VL: DIQMTQSPSSLSASVGDRVTITCRASQGIRNDLGWYQQKPGKAPNRLIYAASSLQSGVPSRFSGSGSGTEFTLTISSLHPEDFATYSCLQHNSFPLTFGGGTKVEIK |  |  |  | No Activation | No Inhibition | did not demonstrate any measurable blockade |  |
| H2aM9228N: anti-APLNR antibody, HCVR/LCVR SEQ ID NO: 66/74, mouse IgG2a Fc (antibody, V domains shown, mouse IgG2a Fc) VH: EVQLVESGGGLVQPGGSLRLSCAASGFTFSNYWMSWVRLAPGKGLEWVANIKQDGSERYYVGSVKGRFTISRGDAKNSLYLQMNSLRAEDTAVYYCARDRFGYSAFDKGVRYYYGMDVWGQGTTVTVSS VL: DIQMTQSPSSLSASVGDRVTITCRASQGIRNDLGWYQQKPGKAPKRLIYAASSLQSGVPSRFSGSGSGTEFTLTISSLQPEDFATYYCLQHNSYPRTFGQGTKVEIK | 3 | No Activation |  |  |  |  |  |
| H2aM9222N: anti-APLNR antibody, HCVR/LCVR SEQ ID NO: 34/42, mouse IgG2a Fc (antibody, V domains shown, mouse IgG2a Fc) VH: EVQLVESGGGLVQPGGSLRLSCAASGFTFSNYWMSWVRQAPGKGLEWVANIKQDGSERYYVGSVKGRFTISRGDAENSLYLQMNSLRAEDTAVYYCARDRFGYSAYDKGVRYYYGMDVWGQGTTVTVSS VL: DIQMTQSPSSLSASVGDRVTITCRASQGIRNDLGWYQQKPGKAPKRLIYAASSLQSGVPSRFSGSGSGTEFTLTISSLQPEDFATYYCLQHNSYPRTFGQGTKVEIK | 2 | No Activation |  |  |  |  | 11% (IC) |
| H4H9103P: anti-APLNR antibody, HCVR/LCVR SEQ ID NO: 162/170, human IgG4 Fc (antibody, V domains shown, human IgG4 Fc) VH: EVQLVESGGGLVQPGRSLRLSCAASGFTFDDYAMHWVRQVPGKGLEWVSGITWNSGDIGYADSVKGRFTISRDNAKNSLYLQMNSLRAEDTALYYCTKDKDSSGYYGIDVWGQGTTVTVSS VL: DIQMTQSPSSVSASVGDRVTITCRASQGIRTWLAWYQQKPGKAPKLLIYAASSLQSGVPSRFSGSESGTDFTLTISSLQPEDFATYYCQQANSFPFTFGPGTKVDIK |  |  |  | No Activation | No Inhibition | did not demonstrate any measurable blockade |  |
| H4H9104P: anti-APLNR antibody, HCVR/LCVR SEQ ID NO: 178/186, human IgG4 Fc (antibody, V domains shown, human IgG4 Fc) VH: QVQLVESGGDLVKPGGSLRLSCAASGFTFSDYYMNWIRQAPGKGLEWVSYISSSGSTIHYADSVKGRFTISRDNAKNLVYLRMNSLRAEDTAVYFCAREREVHDYSDPYFFFYGMDVWGQGTTVTVSS VL: DIQMTQSPSSVSASVGDRVTITCRASQDVSSWLAWYQHKPGKAPKLLIFAASSLQSGVPSRFSGSGSGTDFTLTISSLQSEDFATYYCQQANSFPLTFGGGTKVEIK |  |  |  | No Activation | No Inhibition | did not demonstrate any measurable blockade |  |
| H4H9101P: anti-APLNR antibody, HCVR/LCVR SEQ ID NO: 146/154, human IgG4 Fc (antibody, V domains shown, human IgG4 Fc) VH: QVQLVQSGAEVKKPGASVEVSCKASGYTFTDYYIHWIRQAPGQGLEWMGWINPDSGRTNYAQKFQVRVTMTRDTSITTAYMELNRLKSDDTAVYYCARGPLRGYSGYDFFDYWGQGTLVTVSS VL: DIQLTQSPSFLSASVGDRVTITCWASQGISSYLAWYQQKPGKAPKLLIYAASTLQSGVPSRFSGSGSGTEFTLTISSLQPEDFASYFCQQLNSNPRTFGQGTKVEIK |  |  |  | No Activation | No Inhibition | did not demonstrate any measurable blockade |  |
| H4H9112P: anti-APLNR antibody, HCVR/LCVR SEQ ID NO: 194/202, human IgG4 Fc (antibody, V domains shown, human IgG4 Fc) VH: QVQLVQSGAEVKKPGASVEVSCKASGYTFTDYYIHWIRQAPGQGLEWMGWINPDSGRTNYAQKFQVRVTMTRDTSITTAYMELNRLKSDDTAVYYCARGPLRGYSGYDFFDYWGQGTLVTVSS VL: DIQMTQSPSSLSAFVGDRVTITCRASQSISSYLNWYQQKPGKAPKLLIYTASTLQRGVPSRFRGSGSGTDFTLTISSLQPEDFATYYCHQTYSIPITFGQGTRLEIK |  |  |  | No Activation | No Inhibition | did not demonstrate any measurable blockade |  |
| H1M9207N: anti-APLNR antibody, HCVR/LCVR SEQ ID NO: 2/10, mouse IgG1 Fc (antibody, V domains shown, mouse IgG1 Fc) VH: EVQLVESGGGLAQPGGSLRLSCAASGFTFSNYWMSWVRQAPGKGLEWVANIKQDGSEKYYLESVKGRFTISRDNAKNLLYLQMNSLRAEDTAVFYCARPGLLRFLEPGRRYYSGMNVWGQGTTVTVSS VL: DIQLTQSPSFLSASVGDRVTITCWASQGIRSYLAWYQQKPGKAPKLLIYAASTLQSGVPSRFSGSGSGTEFTLTISSLQPEDFATYYCQQFNSYPWTFGQGTKVEIK | 4 | No Activation |  |  |  |  |  |
